Measured values published in IntAct's records for PubMed 28712572.

These substances were tested against gbrap_human GABARAP (UniProt O95166).
Chain of gbrap_human GABARAP (O95166 whole entry): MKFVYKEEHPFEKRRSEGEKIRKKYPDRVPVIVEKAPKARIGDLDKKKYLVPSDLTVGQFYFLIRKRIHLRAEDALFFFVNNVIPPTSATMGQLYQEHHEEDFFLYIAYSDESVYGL

| Substance | effect of a mutation on the interaction |
| --- | --- |
| Pericentriolar material 1 protein (Homo sapiens), Q15154 L1969P | with no effect |
| Pericentriolar material 1 protein (Homo sapiens), Q15154 L1969Q | with no effect |
| Pericentriolar material 1 protein (Homo sapiens), Q15154 L1969R | with no effect |
| Pericentriolar material 1 protein (Homo sapiens), Q15154 L1969S | with no effect |
| Pericentriolar material 1 protein (Homo sapiens), Q15154 L1969T | disrupting interaction strength |
| Pericentriolar material 1 protein (Homo sapiens), Q15154 L1969V | with no effect |
| Pericentriolar material 1 protein (Homo sapiens), Q15154 L1969W | with no effect |
| Pericentriolar material 1 protein (Homo sapiens), Q15154 L1969Y | with no effect |
| Pericentriolar material 1 protein (Homo sapiens), Q15154 L1971A | with no effect |
| Pericentriolar material 1 protein (Homo sapiens), Q15154 L1971C | with no effect |
| Pericentriolar material 1 protein (Homo sapiens), Q15154 L1971D | with no effect |
| Pericentriolar material 1 protein (Homo sapiens), Q15154 L1971E | with no effect |
| Pericentriolar material 1 protein (Homo sapiens), Q15154 L1971F | with no effect |
| Pericentriolar material 1 protein (Homo sapiens), Q15154 L1971G | with no effect |
| Pericentriolar material 1 protein (Homo sapiens), Q15154 L1971H | with no effect |
| Pericentriolar material 1 protein (Homo sapiens), Q15154 L1971I | with no effect |
| Pericentriolar material 1 protein (Homo sapiens), Q15154 L1971K | with no effect |
| Pericentriolar material 1 protein (Homo sapiens), Q15154 L1971M | with no effect |
| Pericentriolar material 1 protein (Homo sapiens), Q15154 L1971N | with no effect |
| Pericentriolar material 1 protein (Homo sapiens), Q15154 L1971P | with no effect |
| Pericentriolar material 1 protein (Homo sapiens), Q15154 L1971Q | with no effect |
| Pericentriolar material 1 protein (Homo sapiens), Q15154 L1971R | with no effect |
| Pericentriolar material 1 protein (Homo sapiens), Q15154 L1971S | with no effect |
| Pericentriolar material 1 protein (Homo sapiens), Q15154 L1971T | with no effect |

| Substance | effect of a mutation on the interaction |
| --- | --- |
| Pericentriolar material 1 protein (Homo sapiens), Q15154 L1971V | with no effect |
| Pericentriolar material 1 protein (Homo sapiens), Q15154 L1971W | with no effect |
| Pericentriolar material 1 protein (Homo sapiens), Q15154 L1971Y | with no effect |
| Pericentriolar material 1 protein (Homo sapiens), Q15154 L1973A | with no effect |
| Pericentriolar material 1 protein (Homo sapiens), Q15154 L1973C | with no effect |
| Pericentriolar material 1 protein (Homo sapiens), Q15154 L1973D | with no effect |
| Pericentriolar material 1 protein (Homo sapiens), Q15154 L1973E | with no effect |
| Pericentriolar material 1 protein (Homo sapiens), Q15154 L1973F | with no effect |
| Pericentriolar material 1 protein (Homo sapiens), Q15154 L1973G | with no effect |
| Pericentriolar material 1 protein (Homo sapiens), Q15154 L1973H | with no effect |
| Pericentriolar material 1 protein (Homo sapiens), Q15154 L1973I | with no effect |
| Pericentriolar material 1 protein (Homo sapiens), Q15154 L1973K | with no effect |
| Pericentriolar material 1 protein (Homo sapiens), Q15154 L1973M | with no effect |
| Pericentriolar material 1 protein (Homo sapiens), Q15154 L1973N | with no effect |
| Pericentriolar material 1 protein (Homo sapiens), Q15154 L1973P | with no effect |
| Pericentriolar material 1 protein (Homo sapiens), Q15154 L1973Q | with no effect |
| Pericentriolar material 1 protein (Homo sapiens), Q15154 L1973R | with no effect |
| Pericentriolar material 1 protein (Homo sapiens), Q15154 L1973S | with no effect |
| Pericentriolar material 1 protein (Homo sapiens), Q15154 L1973T | with no effect |
| Pericentriolar material 1 protein (Homo sapiens), Q15154 L1973V | with no effect |
| Pericentriolar material 1 protein (Homo sapiens), Q15154 L1973W | with no effect |
| Pericentriolar material 1 protein (Homo sapiens), Q15154 L1973Y | with no effect |
| Pericentriolar material 1 protein (Homo sapiens), Q15154 N1953A | with no effect |
| Pericentriolar material 1 protein (Homo sapiens), Q15154 N1953C | with no effect |

| Substance | effect of a mutation on the interaction |
| --- | --- |
| Pericentriolar material 1 protein (Homo sapiens), Q15154 N1953D | with no effect |
| Pericentriolar material 1 protein (Homo sapiens), Q15154 N1953E | with no effect |
| Pericentriolar material 1 protein (Homo sapiens), Q15154 N1953F | with no effect |
| Pericentriolar material 1 protein (Homo sapiens), Q15154 N1953G | with no effect |
| Pericentriolar material 1 protein (Homo sapiens), Q15154 N1953H | with no effect |
| Pericentriolar material 1 protein (Homo sapiens), Q15154 N1953I | with no effect |
| Pericentriolar material 1 protein (Homo sapiens), Q15154 N1953K | with no effect |
| Pericentriolar material 1 protein (Homo sapiens), Q15154 N1953L | with no effect |
| Pericentriolar material 1 protein (Homo sapiens), Q15154 N1953M | with no effect |
| Pericentriolar material 1 protein (Homo sapiens), Q15154 N1953P | with no effect |
| Pericentriolar material 1 protein (Homo sapiens), Q15154 N1953Q | with no effect |
| Pericentriolar material 1 protein (Homo sapiens), Q15154 N1953R | with no effect |
| Pericentriolar material 1 protein (Homo sapiens), Q15154 N1953S | with no effect |
| Pericentriolar material 1 protein (Homo sapiens), Q15154 N1953T | with no effect |
| Pericentriolar material 1 protein (Homo sapiens), Q15154 N1953V | with no effect |
| Pericentriolar material 1 protein (Homo sapiens), Q15154 N1953W | with no effect |
| Pericentriolar material 1 protein (Homo sapiens), Q15154 N1953Y | with no effect |
| Pericentriolar material 1 protein (Homo sapiens), Q15154 P1970A | decreasing interaction strength |
| Pericentriolar material 1 protein (Homo sapiens), Q15154 P1970C | with no effect |
| Pericentriolar material 1 protein (Homo sapiens), Q15154 P1970D | decreasing interaction strength |
| Pericentriolar material 1 protein (Homo sapiens), Q15154 P1970E | decreasing interaction strength |
| Pericentriolar material 1 protein (Homo sapiens), Q15154 P1970F | with no effect |
